One block for each molecule: values may come before it.
Tests used:
[1] = molecular target: T1, KAP (Homo sapiens, UniProt Q16667); test: Circular dichroism spectroscopy of KAP; conditions: 5 μM KAP, 50 μM HTm4 C-peptide, 250 to 320 nm
T1 construct: Full-length KAP protein was coupled to a sensor chip CM-5 shell; made in house
T1 sequence (Q16667 1-212): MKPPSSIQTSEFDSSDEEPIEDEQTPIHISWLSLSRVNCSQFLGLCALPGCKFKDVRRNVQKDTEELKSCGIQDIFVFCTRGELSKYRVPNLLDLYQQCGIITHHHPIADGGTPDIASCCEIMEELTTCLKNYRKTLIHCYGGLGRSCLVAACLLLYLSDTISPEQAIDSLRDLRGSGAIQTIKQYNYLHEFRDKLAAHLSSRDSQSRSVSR
Description: Circular Dichroism (CD) spectroscopic measurements were performed on a Jasco J-700 (Jasco, Japan). Spectra measurements were recorded from 250 to 320 nm. The spectra change of KAP was measured by comparing two different KAP samples in the same solution (20 mM Tris-HCl, pH 7.2, 0.15 M NaCl). Sample A contained 5 μM KAP and an excess amount of HTm4 C-peptide (50 μM). The contents of sample B were identical to those in sample A, except for HTm4 C-peptide. The difference in spectra was further converted to parameter (mean residue ellipticity) and plotted on the graph in FIG. 4.
Spectra measurements were recorded from 250 to 320 nm. The spectra change of KAP was measured by comparing two different KAP samples in the same solution (20 mM Tris-HCl, pH 7.2, 0.15 M NaCl). Sample A contains 5 μM KAP and an excess amount of HTm4 C-peptide (50 μM). Sample B was formulated as Sample A, with the exception of the HTm4 C-peptide. The difference in spectra was further converted to parameter (mean residue ellipticity) and plotted.

[2] = molecular target: T1, KAP; test: Surface plasmon resonance (BioSensor Biacore) protein interaction assay; assay type: binding; conditions: for binding to KAP-coupled sensor chip (increase in mass): versus uncoupled or nonspecifically coupled chips
Description: The immobilization of proteins to sensor chips (CM-5 chip) was performed using a carbodiimide covalent linkage protocol (Amersham Biosciences). KAP was coupled to the sensor chip at 2,800 resonance units (RU). Nonspecific human immunoglobin was coupled to the surface of the sensor chip (anti-β 2m antibody BBM.1) at 2,900 RU. Protein interaction assays were carried out using the BioSensor Biacore 2000 (Biacore). An HTm4 C-terminal peptide composed of 22 amino acids ([…] SEQ ID NO:3) was synthesized. Either full-length HTm4 protein (20 μM), or HTm4 C-terminal peptide (1 mM) in 50 mM HEPES containing 1 mM EDTA, 1 mM DTT, 5% glycerol, and 0.1% Tween 20 was examined at a flow rate of 10 μl/min.
Surface plasmon resonance was used to detect direct binding of purified HTm4 to KAP. Full-length KAP protein was coupled to a sensor chip CM-5 shell (Amersham Biosciences).
The interactions of HTm4 with immobilized proteins were analyzed on a sensor chip (CM-5) cell. KAP was coupled to the surface of the sensor chip at 2,800 RU; nonspecific human immunoglobulin (NS) was coupled to the surface of the sensor chip (anti-β2m antibody BBM.1) at 2,900 RU; UC, uncoupled sensor chip. Binding of 20 μM full-length HTm4 protein in 50 mM HEPES containing 1 mM EDTA, 1 mM DTT, 5% glycerol, and 0.1% Tween 20 was examined at a flow rate of 10 μl/min. […] The interactions of HTm4 with immobilized proteins were analyzed on a sensor chip (CM-5) cell. KAP was coupled to the surface of the sensor chip at 2,800 RU; nonspecific human immunoglobulin was coupled on the surface of the sensor chip (anti-β 2m antibody BBM.1) at 2,900 RU. Binding of 1 mM HTm4 C-terminal peptide in 50 mM HEPES containing 1 mM EDTA, 1 mM DTT, 5% glycerol, and 0.1% Tween 20 was examined at a flow rate of 10 μl/min. Responses from uncoupled cells were subtracted.

[3] = molecular target: T2, KAP phosphatase (Homo sapiens, UniProt Q16667); test: KAP phosphatase activity assay, hydrolysis of pNPP; assay type: biochemical
Description: KAP phosphatase activity was examined by the detection of hydrolysis of p-nitrophenyl phosphate (pNPP) (WAKO) as described previously (Song, H., Hanlon, N., Brown, N. R., Noble, M. E., Johnson, L. N., and Barford, D. (2001) Mol. Cell. 7, 615-626). The time course of phosphatase activity for KAP was examined. 20 μl of reaction mixture containing 50 mM Tris-HCl, pH 7.5, 0.15 M NaCl, 2 mM DTT, 0.5 mM EDTA, 3 mM pNPP, 40 μM KAP, 4 μM cdk cyclin A (Upstate Biotechnology), and 20 μM HTm4 was incubated at 30° C. for the indicated times. The reaction was halted by the addition of 0.1 M NaOH. The phosphatase activity in 5 μl of each sample was measured as A410. To investigate the effect of HTm4 on KAP, KAP phosphatase activity was assessed with different HTm4 concentrations in the presence of pNPP. Reaction velocity was measured in the presence of 0.0025-20 μM HTm4.
(§1) 20 μl of reaction mixture containing 50 mM Tris-HCl, pH 7.5, 0.15 M NaCl, 2 mM DTT, 0.5 mM EDTA, 3 mM pNPP, 40 μM KAP, 4 μM cdk2.cyclin A, and 20 μM HTm4 was incubated at 30° C. for the indicated times. The reaction was halted by the addition of 0.1 M NaOH. The phosphatase activity in 5 μl of each sample was measured at 410 nm. […] KAP phosphatase activity was assessed in the presence of increasing amounts of HTm4 using pNPP as the KAP substrate. The reaction velocity was measured in the presence of 0.0025-20 μM HTm4. All reaction mixtures contained 40 μM KAP and 4 μM active cdk2.cyclin A. Reactions were repeated in triplicate. Their average values and standard deviations are shown. […] KAP phosphatase activity was assessed using the Ser/Thr Assay Kit 1 with different concentrations of active cdk2.cyclin A (from 4 to 20 μM) as the substrate in the presence or absence of 40 μM HTm4. […] KAP phosphatase activity was assessed using the Ser/Thr Assay Kit 1 with different concentrations of active cdk2.cyclin A (from 4 to 20 μM) as the substrate in the presence or absence of 40 μM HTm4.

[4] = molecular target: KAP.cdk2.cyclin A complex (Homo sapiens, UniProt Q16667); test: Cyclin A dissociation assay; assay type: biochemical; conditions: 1 or 10 μM HTm4 without His tag, His-tagged KAP pull-down
Description: The status of the cdk2.cyclin A complex was examined in the presence and absence of HTm4. […] The bound fractions were resolved by SDS-PAGE and Western blotted for the presence of cyclin A (Santa Cruz Biotechnology). An alkaline phosphatase conjugated to anti-rabbit IgG (EY Laboratory) was used to visualize the amount of bound cyclin A present in the KAP cdk2 complex. […] After incubating at room temperature for 5 min, either 10 μl of 10 μM HTm4 (without His tag) or its buffer was added to the reaction mixture. After incubating at room temperature for 5 min, 5 μl of nickel magnet beads was added to each mixture. […] The gel was stained with a silver staining kit (ATTO).
After that, 5 μl of nickel magnet beads was added. Bound fractions were electrophoresed by SDS-PAGE and then detected by Western blotting with anti-cyclin A antibody as the primary antibody, and alkaline phosphatase-conjugated anti-rabbit IgG was used as the secondary antibody. The band of cyclin A is indicated with an arrow. […] After incubation at room temperature for 5 min, 10 μl of 10 μM HTm4 (without His tag) or its buffer was added to the mixture and allowed to incubate at room temperature for 5 mins. 5 μl of nickel magnet beads was added to each mixture. […] The gel was then silver stained. Bands of cyclin A, cdk2, and KAP are indicated with arrows.

[5] = molecular target: T2, KAP phosphatase; test: Kinetic measurements of KAP phosphatase with active cdk2.cyclin A as substrate (Lineweaver-Burk plot); assay type: biochemical; conditions: 40 μM HTm4, active cdk2.cyclin A 4 to 20 μM as substrate
Description: To investigate the effect of HTm4 on KAP, the initial reaction velocity of KAP was assessed using different concentrations of active cdk2.cyclin A as the substrate in the presence or absence of HTm4. The results were analyzed further using a Lineweaver-Burk plot.
as §1

[6] = molecular target: T3, KAP phosphatase (Homo sapiens, UniProt Q16667); test: KAP dephosphorylation of peptide or protein substrates (Ser/Thr Phosphatase Assay Kit 1); assay type: biochemical; conditions: 30 min at 30° C.
T3 construct: made in house
T3 sequence (Q16667 1-212): T1 sequence (Q16667 1-212)
Description: KAP dephosphorylation of phosphorylated proteins or peptide substrates was examined using the Ser/Thr Phosphatase Assay Kit 1 (Upstate Biotechnology) according to the manufacturer's instructions. Phosphorylated Thr^160 of cdk2 and K-R-pT-I-R-R peptide were used as substrates for the assay. Concentrations of KAP and HTm4 were both 20 μM; concentrations of p-cdk2 and peptide substrates (K-R-pT-I-R-R) were 10 and 25 μM, respectively. Reactions were performed in pNPP Ser/Thr Assay Buffer, containing 50 mM Tris-HCl, pH 7.0, and 100 μM CaCl2. To examine the importance of the HTm4 C-terminal region and to confirm the KAP phosphatase activity enhancement effect of HTm4, an HTm4 C-terminal peptide composed of 22 amino acids ([…] SEQ ID NO:3) was synthesized. The phosphatase enhancement activity of the HTm4 C-terminal region was examined using the assay protocol described above.
KAP dephosphorylation of phosphorylated proteins or peptide substrates was examined using the Ser/Thr Phosphatase Assay Kit 1 according to the manufacturer's instructions. Phosphorylated Thr^160 of cdk2 (p-cdk2) and K-R-pT-I-R-R peptides (SEQ ID NO:4) were used as substrates for the assay. […]
Phosphorylated threonine 160 from cdk2.cyclin A, active, and phosphopeptide (K-R-pT-I-R-R) were used as substrates to assess KAP activity. […] The reaction was allowed to proceed for 30 min at 30° C., and absorbance was measured at 650 nm.

CD difference spectrum of KAP with versus without C-peptide [1]: spectral change was found at 270-280 nm | binding to KAP-coupled sensor chip (increase in mass) ([2]; 1 mM HTm4 C-terminal peptide, flow rate 10 μl/min): immediate increase in mass was observed | enhancement effect on KAP phosphatase activity compared with HTm4 wild-type protein ([3]; C-terminal peptide at 0.1 mM, pNPP substrate): comparable enhancement effect
Molecule: CNANCCNSREEISSPPNSV (Synthetic HTm4 C-terminal Peptide) [HTm4 C-peptide]

binding to KAP-coupled sensor chip (increase in mass) ([2]; 20 μM full-length HTm4, flow rate 10 μl/min): immediate increase in mass was observed | KAP/HTm4 selective binding after premixing HTm4 with KAP ([2]; premixed with KAP, data not shown): abolished | increase of dephosphorylating activity of KAP toward phosphorylated cdk2 ([6]; 20 μM KAP and HTm4, 10 μM p-cdk2 in the cdk2.cyclin A complex): more than 6 fold | KAP dephosphorylation of synthesized phosphopeptide K-R-pT-I-R-R ([6]; 20 μM KAP and HTm4, 25 μM peptide substrate): potentiates dephosphorylation
B1: HTm4: Recombinant human HTm4 (MS4A3) full-length protein purified from E. coli, His tag cleaved (protein, listed as Homo sapiens)
chain: MASHEVDNAELGSASAHGTPGSEAGPEELNTSVYQPIDGSPDYQKAKLQVLGAIQILNAAMILALGVFLGSLQYPYHFQKHFFFFTFYTGYPIWGAVFFCSSGTLSVVAGIKPTRTWIQNSFGMNIASATIALVGTAFLSLNIAVNIQSLRSCHSSSESPDLCNYMGSISNGMVSLLLILTLLELCVTISTIAMWCNANCCNSREEISSPPNSV
dissociation of cyclin A from the KAP.cdk2.cyclin A complex [4]: dissociated from the complex in a dose-dependent manner | Vmax of KAP phosphatase activity in the presence of HTm4 [5]: 17.5 nM/min | Km ([5]; read-out: Km of KAP phosphatase activity in the presence of HTm4): 8.33 µM | KAP phosphatase activity toward pNPP substrate ([3]; 20 μM HTm4, wild-type KAP, 4 μM active cdk2.cyclin A): significantly enhanced | effect of increasing HTm4 on KAP phosphatase activity (reaction velocity) ([3]; 0.0025-20 μM HTm4, pNPP substrate, 40 μM KAP, 4 μM active cdk2.cyclin A): linearly increased
